test system: GSC7 cells; experiment: Nano-Glo Dual-Luciferase Reporter (Nanoglo DLR) assay of enhancer activity, fold change to mCMV; type: cell-based, human; details: expression fold change of the individual enhancer compared to mCMV
Description: We chose an arrayed library format, with 160 bp enhancer fragments individually cloned into separate plasmids and arrayed in 96 well plates. These 160 bp were synthesized as a single pool of oligos, then randomly cloned into the plasmid and isolated. 20 bp×2 were needed for PCR amplification of the pool and so a library of 200 bp fragments was synthesized (Twist Biosciences). To meet our oligo synthesis strategy, ChIP-seq peaks expressed by GSCs were merged into a single oligo. This oligonucleotide pool was PCR-amplified (using limited cycles to reduce bias and ‘jackpot’ products meaning products which are easier to amplify will overtake the oligonucleotide pool) and cloned into the expression vector by an efficient Golden Gate reaction. 4579 individual plasmids were then randomly picked, isolated and plated as an arrayed plasmid DNA library on 96 well plates (×48). The bacterial colony picking and production of plasmid minipreps were supported by the Edinburgh Genome Foundry (S. Rosser). This library was then screened using the optimised Nanoglo DLR assay (Nano-Glo Dual-Luciferase Reporter Assay, Promega) in 384 well format. Each plate was transiently transfected together with PGK-FFLuc in a 1:10 ratio into GSC7 cells. 2 days later a Nanoglo DLR assay was performed and assayed on a plate reader.
Cells were seeded in 384 well plates using a multidrop and transfected the following day using the CyBio Felix. Two days later the experiment was terminated with a Nanoglo DLR assay and all hits with a fold change to mCMV greater than 10 were Sanger sequenced and mapped back to the genome.
Cells were seeded at the required density. The following day the transfection was carried out. For this the Plus reagent and Lipofectamine LTX (Life Technologies, 15338030) were each diluted in half the volume of Opti-MEM I Reduced-Serum Medium (further referred to as Optimem) (Life Technologies, 31985062). Following this step, the Plus reagent/Optimem premix was added to all DNA samples followed by the Lipofectamine LTX/Optimem premix. The transfection mix was incubated for 5 min at room temperature and then carefully dropped on the cells. Generally, no media change was carried out. Cells were analysed two days following transfection.
This assay consists of two steps. The transfection was carried out using a normalisation plasmid PGK-Firefly-Luciferase (Promega, E5011) that was transfected in a 1/10 ratio with the plasmid of interest. First, the Firefly Luciferase activity is measured which allows to normalise to transfection efficiency. In a second step, the activity of Nanoluc is determined which is the readout of the plasmid of interest. Cells were washed 3× with PBS and 20 μl was left in the 96 well plate after the final wash (25 μl in 384 well). Oneglo buffer was added and the plate was shaken for 5 min at 480 rpm to allow cell lysis. 20 μl cell lysate in 96 well format or 25 μl cell lysate in 384 well format was then transferred into the corresponding opaque white plate and luminescence was measured at for 0.1 s per well using the Ensight Multimode Plate Reader. For the following Nanoluc reaction in a 96 well format 2 μl cell lysate was transferred into an opaque white plate containing 40 μl PBS, and 20 μl Stopglo buffer, supplemented with substrate, was added to each well. In a 384 well format 20 μl Stopglo buffer containing substrate were added on top of the undiluted cell lysate. The plate was shaken again for 5 min at 480 rpm to quench the firefly luciferase reaction and ensure good mixing. Nanoluc activity was measured for 0.1 s per well, again using Ensight Multimode Plate Reader.
Data obtained by the Nanoluc reaction was normalised to Firefly reaction to account for well-to-well variability of transfection efficiency. Normalised data were used to calculate the fold change to the empty vector control mCMV.

Molecule | Fold change (Median)
ID2339: enhancer fragment, SEQ ID NO: 9 (nucleic acid) DNA: GTCGGCGGAACTGAGTCTCCTTTGTGGAGCCCCTCATTTGCATGATAAACCCCGGGGACAAAGTGTGTTCTTGTTACTTGGACTGTTTCTTGGAAACTGCTGCTACCTGGAGCGAGTGAACACAGGGCAAGTATTCTCGCCCACAGCAACGTGTCATTGA | 79.6 fold
CSE061: clustered SOX dimer motif enhancer, SEQ ID NO: 48 (nucleic acid) DNA: GAACAGCACTTAAATATTAATAGCATCACTGGGAAAACACGACAGCTATTTCCCTGTTTTCTGCAGCTCAATGAAGAGTTGTTCAGTGCAGACCCCAGTGCTCTTGCCTCATGAATGGACGTGATTGTGGGGACATCATCTCCTACTAAGGCAAAACGTGACACTGAGAACAAAGGCTGGTTTTTAGCCTGATGTGATGAGCTCACCCCAGTGCCCATGTGGGGACTTTGAAGCTCGTCCAGGTGCCAGTTTTCTGTGTATATGACATTCTTGGTTGGGGAGGGTGTGGACTGGGCAGCAGGCTTT | 58.3 fold
CSE075: clustered SOX dimer motif enhancer, SEQ ID NO: 49 (nucleic acid) DNA: ATAAGCCCTTTAAATTAAATCTTTATGCAGATTCTATTTTATACTCCAAACTTTTCATGGAGCCTTGTGTAATTCTGATGTGTAAACCAACAAACAGAGAGGCTCTGTGTATGGAGTAGCTGGTTTGGATACCAGCTGGCTTGGCTGTGCGCCTTTCTAATGGTAATGAAGTCACACAGCTGCTAGGACAATCAGCTGGAGTTCAGATTGTCACTAGCTAAATGGATATCCATTGACTAGCTTCTTATCCGGACTCATTAAAGTTTAGTATTGACAAATAGTGGCTGGAGGTTTACAACTAAGAGGCATGTAGAAATGAACTTGTTGACTATTTTTTCCCTATAGCTTTTGCTTTGTGATTCACAGAATGTCATTCATC | 58.1 fold
ID0876: enhancer fragment, SEQ ID NO: 8 (nucleic acid) DNA: GAGCAGGCAGTCATTTGGTTCCCTTCTCTGAATGCATTGGCTCTGATCCACGGCGCCTCAGGAAGTGAAAGGGAGCAGGCAGTGAGGCCAAGCCATGAATGTTGGGCCCTTTTCTTAGAAAACAAAGGGTTCACTTTAGGCTAGGAGGAAACATCCGGGG | 91.1 fold
CSE074: clustered SOX dimer motif enhancer, SEQ ID NO: 51 (nucleic acid) DNA: ATACATTTTAGCACCAAACACAATTTAATAACAGGGCACAGAGGCCGCAAAGCCTCCTGATTCTGTTCCATTACTAATTTATCAGGGGCTGAAAGCAACCAAACTTAGGATCCCAGGCAGACAATGGAGCCTTTGAGGGGCAAGGGAAGCATCATTTAAAAGGAAAGCATTACCATTCTAAAATAATGGCAAAGCACATGAACTGAGTGCTCTGAAAGAGAGCACTACAAAAAAGGTATTCTCAGCTTAAATGCCCCAAACACAAAAGCTTTTAGTTGGGACTTAGACGGGAAAAAGAAAATAGCTCCCAATAAATTGGTTTTACCAGTATCCTTTTGTGTGTGCTGGTGCCAAGGGGGCGAGGGTACAGGCAAAGCGTGATTTTCCAAAACCTAGCTGAATTATGTTTCTTCTTTAGAACAAAACCCAACATTTTGCTAATGAGGATAAAGACAGTAAAACTGATATTCCTGTGCTATTACTAACTTGG | 250.6 fold
CSE054: clustered SOX dimer motif enhancer, SEQ ID NO: 50 (nucleic acid) DNA: GCCAACAACTCATATAGTGGAGGCTTGAGCACACCATGCTTATTCCCAGAGTTCCAATGCTCTGCTTTTGAACCATTACCATGCCTTTCAGCAGCACTGTCAACAGAGCTCAGAGAAGGTCTTGAACTCCAGAGAATGAATGAGATATGCCAAATGAAGCATAATTACTTTATTGACGTCATTCAGCTTTCAACTCACATTTAATGAGAAAGCTTCTACTGCTTGAAACAGTGGGCCATTTGTAGCACATTATGCAAATGATAAGACTAATCTTTTGCATTATACATAAGAGCTGCTTATTGTGCATTAACTAATTTATCTGACTAGGAAGGGGCTATGAATGCTGATTTTTATTAAGCTCTTCATTAAGTGAAAATGTAGGCATGGCAAGTGCATAT | 65.7 fold
